In experiment [1] the target is 15 L-β33-42 peptide+ruthenium complex-labeled polylysine-bound substance. The experiment is described as follows: competitive electrochemiluminescence immunoassay, no competitor: labeled peptide composite bound to bead-bound 21F12.
The target in experiment [2] is Aβ1-42 synthetic peptide (produced by Peptide Institute, Inc.). As to the kind of experiment: electrochemiluminescence double antibody sandwich; 21F12 on magnetic beads, ruthenium-labeled 3D6 detection; Aβ1-42 at 1 pg/mL.
Experiment [3] has the same target. As to the kind of experiment: electrochemiluminescence double antibody sandwich; 21F12 on magnetic beads, ruthenium-labeled 3D6 detection; Aβ1-42 at 5 pg/mL.
For experiment [4], the target named is enzyme degradation product of the Aβ1-42 synthetic peptide (trypsin treated Aβ1-42 synthetic peptide). As to the kind of experiment: electrochemiluminescence double antibody sandwich; 21F12 beads, ruthenium-labeled 3D6 detection; trypsin-treated Aβ1-42 sample.
Experiment [5] has as its target 15 L-β33-42 peptide+ruthenium complex-labeled polylysine-bound substance. The experiment is described as follows: competitive electrochemiluminescence immunoassay, no competitor: labeled peptide composite (1 µg/ml) bound to bead-bound 21F12.
Experiment [6] has as its target Aβ1-42 synthetic peptide (produced by Peptide Institute, Inc.). As to the kind of experiment: electrochemiluminescence double antibody sandwich; 21F12 on magnetic beads, ruthenium-labeled 3D6 detection; Aβ1-42 at 10 pg/mL.
Experiment [7] has the same target. The experiment is described as follows: electrochemiluminescence double antibody sandwich; 21F12 on magnetic beads, ruthenium-labeled 3D6 detection; Aβ1-42 at 25 pg/mL.
Experiment [8] has the same target. As to the kind of experiment: electrochemiluminescence double antibody sandwich; 21F12 on magnetic beads, ruthenium-labeled 3D6 detection; Aβ1-42 at 50 pg/mL.
For experiment [9] the target is unchanged. The experiment is described as follows: competitive electrochemiluminescence immunoassay, no competitor: ruthenium-labeled 21F12 (0.1 µg/ml) bound to bead-bound Aβ1-42.
For experiment [10] the target is unchanged. The experiment is described as follows: electrochemiluminescence double antibody sandwich; 21F12 on magnetic beads, ruthenium-labeled 3D6 detection; Aβ1-42 at 0.5 pg/mL.
The target is the same in experiment [11]. As to the kind of experiment: electrochemiluminescence double antibody sandwich; 21F12 on magnetic beads, ruthenium-labeled 3D6 detection; Aβ1-42 at 100 pg/mL.
Experiment [12] shares this target. The experiment is described as follows: electrochemiluminescence double antibody sandwich; 21F12 beads, ruthenium-labeled 3D6 detection; untreated Aβ1-42 control sample.
For experiment [13], the target named is enzyme degradation product of the Aβ1-42 synthetic peptide (trypsin treated Aβ1-42 synthetic peptide). The experiment is described as follows: electrochemiluminescence double antibody sandwich; 21F12 beads, ruthenium-labeled 3D6 detection; trypsin-treated Aβ1-42 sample against untreated control.

Sequence of 15 L-β33-42 peptide+ruthenium complex-labeled polylysine-bound substance (peptide, as listed by the source): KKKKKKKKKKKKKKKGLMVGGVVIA

Take “21F12 mouse monoclonal antibody (produced by Innogenetics Inc.)”: the ECL value amounted to 18100 in [1]; 1840 in experiment [2]; 10800 in [3]; 1090 in [4]; 17000 in experiment [5]; 22900 in [6]. In addition, the ECL value in experiment [7] was found to be 75800; in experiment [8] it was 160000; in experiment [9], 34400; in experiment [10], 1080; in [11], 345000; in experiment [12], 12800. Also, the Difference from the blank (ECL value) in experiment [2] was 1370; in [3] it was 10300; in [6], 22400; in [7], 75300; in experiment [8], 160000; in experiment [10] it was 614. Besides, the Difference from the blank (ECL value) in experiment [11] amounted to 345000. Further, in experiment [13], the % (relative ratio of measured value, control sample = 100%) amounted to 9%.

Values taken from patent US20080199879A1.
